Legend:
[1] = molecular target: pep3 with terminal Gln amide (…-CONH2); experiment: fluorescence polarisation; FBXO31–SKP1 complex (0–5 µM) titrated against fluorescein-labelled peptides (2–10 nM); 25 mM HEPES, 150 mM NaCl, pH 7.5, room temperature, 30 min; one-site fit; constants of the highest affinity probes only approximate
[2] = molecular target: pep3 with terminal Asn amide (…-CONH2); experiment: as above
[3] = molecular target: pep3 with terminal Phe amide (…-CONH2); experiment: as above
[4] = molecular target: pep3 with terminal Asp amide (…-CONH2); experiment: as above
pep3 …[X]-CONH2, X = Trp = experiment: fluorescence polarisation; FBXO31–SKP1 complex (0–5 µM) titrated to fluorescein-labelled peptide (2–10 nM); 25 mM HEPES, 150 mM NaCl, pH 7.5; room temperature, 30 min; one-site fit, n = 3 parallel experiments
pep3 …[X]-CONH2, X = His = experiment: as above
pep3 …[X]-CONH2, X = Val = experiment: as above
pep3 …[X]-CONH2, X = Ala = experiment: as above
pep3 …[X]-CONH2, X = Lys = experiment: as above
pep3 …[X]-CONH2, X = Ile = experiment: as above
pep3 …[X]-CONH2, X = Thr = experiment: as above
pep3 …[X]-CONH2, X = Met = experiment: as above
pep3 …[X]-CONH2, X = Pro = experiment: as above
pep3 …[X]-CONH2, X = Glu = experiment: as above
pep3 …[X]-CONH2, X = Ser = experiment: as above
pep3 …[X]-CONH2, X = Gly = experiment: as above
pep3 …[X]-CONH2, X = Leu = experiment: as above
pep3 …[X]-CONH2, X = Tyr = experiment: as above
pep3 …[X]-CONH2, X = Arg = experiment: as above
pep3 …[X]-CONH2, X = Cys = experiment: as above

Substance	Kd [1] [µM]	Kd [2] [µM]	Kd [3] [µM]	Kd [4] [µM]	Kd (pep3 …[X]-CONH2, X = Trp) [µM]	Kd (pep3 …[X]-CONH2, X = His) [µM]	Kd (pep3 …[X]-CONH2, X = Val) [µM]	Kd (pep3 …[X]-CONH2, X = Ala) [µM]	Kd (pep3 …[X]-CONH2, X = Lys) [µM]	Kd (pep3 …[X]-CONH2, X = Ile) [µM]	Kd (pep3 …[X]-CONH2, X = Thr) [µM]	Kd (pep3 …[X]-CONH2, X = Met) [µM]	Kd (pep3 …[X]-CONH2, X = Pro) [µM]	Kd (pep3 …[X]-CONH2, X = Glu) [µM]	Kd (pep3 …[X]-CONH2, X = Ser) [µM]	Kd (pep3 …[X]-CONH2, X = Gly) [µM]	Kd (pep3 …[X]-CONH2, X = Leu) [µM]	Kd (pep3 …[X]-CONH2, X = Tyr) [µM]	Kd (pep3 …[X]-CONH2, X = Arg) [µM]	Kd (pep3 …[X]-CONH2, X = Cys) [µM]
recombinant FBXO31–SKP1 complex (wild type) (from UniProt Q5XUX0 66-539; P63208 1-163)	0.055	0.024	0.006	0.304	–	–	–	–	–	–	–	–	–	–	–	–	–	–	–	–
FBXO31–SKP1 complex (StrepII-FBXO31.1(∆1–65) with SKP1(A2P,∆38–43,∆71–82)) (from UniProt Q5XUX0 66-539; P63208 1-163)	–	–	–	–	0.0382	0.0132	0.0437	0.0544	0.0938	0.0321	0.042	0.021	0.0583	0.103	0.0496	0.137	0.0414	0.0259	0.071	0.0199

Source: publication PMC11821526
